# Target: ILF3 dsRBD;hnRNPC dsRBD (Homo sapiens;Homo sapiens, UniProt Q12906;P07910 398-590;16-57, |)
# Test: EMSA; both proteins pooled; simultaneous binding; 1 uM labelled RNA, 3 uM protein, 10 ul, on ice 45 min; 6% PAGE in 0.5x TBE (gel pre-run at 4 C); binding buffer, salt and pH not stated (proteins dialyzed in 25 mM Tris-HCl pH 8.0, 150 mM NaCl; final elution from cation exchange/heparin up to 1 M NaCl, then SEC)
# Details: protein: recombinant;recombinant, tags: N-terminal GST (pGood6p), removed with TEV;10xHis (pSUMOH10), label: 5' DY781
binder,measurement,value
"AGUGGCUUAUGCCUGUGAUCCCAACAC (ssRNA, A-to-I editing site represented by G as printed (A/G); inosine not stated) [edited RNA]",binding result,binds

# — publication PMC9351184, “Survey of the binding preferences of RNA-binding proteins to RNA editing events”
